Source: US20250326825A1, “ANTI-FABP4 ANTIBODIES AND THEIR USES” (THE HONG KONG POLYTECHNIC UNIVERSITY, priority 2024, published 2025)

Key:
[1] = limits clinical use; cited from earlier work
[2] = system: hepatocellular carcinoma cells; test: Sphere formation / limiting dilution sphere analysis (self-renewal); type: cell-based, human
Protocol: Sphere formation assay—Three to five hundred cells of PLC/PRF/5, Huh7 and hepatocellular carcinoma organoids (HK-HCC P1 and HCC #23) were seeded to 24-well plates coated with poly (2-hydroxyethyl methacrylate) (polyHEMA, Sigma Aldrich). Cells were grown in 500 μl of either conditioned media or serum-free 0.25% methylcellulose (Sigma-Aldrich) DMEM/F12 medium supplemented with 4 μg/mL insulin (Sigma-Aldrich), B27 (Invitrogen) and recombinant human FABP4 (rhFABP4, Biovision) at a concentration of either 20 ng/ml or 100 ng/ml. The number of tumourspheres (diameter larger than 100 μm) was counted under microscope after 8 to 12 days.
Limiting dilution assay—Parental or shITGB1 PLC/PRF/5 and Huh7 cells were cultured in a 96-well plate coated with polyHEMA with 200 μl serum-free 0.25% methylcellulose DMEM/F12 medium supplemented with 4 μg/mL insulin, B27 and rhFABP4 when appropriate. Sphere formation was scored after 8 to 12 days under a phase contrast microscope. The frequency of sphere-forming cell was calculated accordingly using an extreme limiting dilution algorithm (ELDA).

[3] = system: hepatocellular carcinoma cells; test: Cancer stem cell functional assays (overall); type: cell-based, human; conditions: hepatocellular carcinoma cells in ADCM (FIG. 9A to 9D)
Protocol: In summary, the methods shown herein were used to evaluate the interaction between differentiated adipocytes and HCC cells using a co-culture system. The conditioned medium of the adipocytes was profiled using Orbitrap liquid chromatography mass spectrometry. The functional role of FABP4 in the regulation of liver cancer stem cells was evaluated by various cancer stem cells functional assays. In vivo functional characterization of FABP4 was performed in Fabp4 knockout mice. Molecular pathways mediating phenotypic alterations were identified using mass spectrometry, RNA sequencing analysis, and pathway analysis. The therapeutic efficacy of monoclonal neutralising antibody against FABP4 was evaluated in two mouse models, a hepatocellular carcinoma (HCC) xenograft model and a MASLD-HCC model.

β-catenin = test: Beta-catenin TCF binding luciferase (TOP/FOP) reporter assay; type: cell-based, human; conditions: ADCM or rhFABP4 for 24 hours (FIG. 5E)
From the text: Beta-catenin TCF binding luciferase reporter assay—β-catenin activity was examined using luciferase reporter assay of TCF/LEF-dependent transcription (TOP/FOPFLASH reporter assay). Either firefly luciferase pSuper8XTOPflash or pSuper8XFOPflash constructs (gifts from Dr. Moon R, University of Washington, USA), together with Renilla luciferase construct pRL-CMV (Promega, Madison, WI, USA) for normalization of transfection efficiency, were transfected using Lipofectamine 2000. Luciferase activities were assayed using Dual-Luciferase Reporter Assay System (Promega) according to manufacturer's protocol.

ITGB1 = molecular target: T1, ITGB1 (Homo sapiens, UniProt P05556); test: Mass spectrometry / coimmunoprecipitation of FABP4 binding partner; conditions: biotin-labelled rhFABP4, Huh7 membrane surface
T1 construct: endogenous in cells; host or cells: Huh7
T1 sequence (P05556 21-798): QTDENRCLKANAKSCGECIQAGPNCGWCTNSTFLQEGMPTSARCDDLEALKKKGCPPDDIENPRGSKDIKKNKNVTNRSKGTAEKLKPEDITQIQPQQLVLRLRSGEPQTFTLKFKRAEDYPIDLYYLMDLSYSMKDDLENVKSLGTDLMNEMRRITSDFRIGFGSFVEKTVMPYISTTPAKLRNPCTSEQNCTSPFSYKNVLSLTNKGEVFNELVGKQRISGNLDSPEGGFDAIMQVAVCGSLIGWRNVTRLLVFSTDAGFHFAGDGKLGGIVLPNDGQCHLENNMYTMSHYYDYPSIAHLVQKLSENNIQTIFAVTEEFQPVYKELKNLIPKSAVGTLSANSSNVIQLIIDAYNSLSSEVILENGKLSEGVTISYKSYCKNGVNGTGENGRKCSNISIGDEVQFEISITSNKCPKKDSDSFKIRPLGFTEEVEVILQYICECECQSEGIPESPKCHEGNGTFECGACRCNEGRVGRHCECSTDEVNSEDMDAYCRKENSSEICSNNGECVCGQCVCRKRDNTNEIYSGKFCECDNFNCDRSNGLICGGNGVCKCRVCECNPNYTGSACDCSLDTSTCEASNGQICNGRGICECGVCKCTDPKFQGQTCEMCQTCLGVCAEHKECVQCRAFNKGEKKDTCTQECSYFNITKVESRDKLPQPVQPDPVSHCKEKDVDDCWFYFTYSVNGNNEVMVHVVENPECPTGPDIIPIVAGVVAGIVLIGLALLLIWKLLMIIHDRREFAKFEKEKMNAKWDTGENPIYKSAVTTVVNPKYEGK
Protocol: Biotinylation of rhFABP4 and Streptavidin capturing of membrane protein—rhFABP4 was biotin-labelled and crosslinked with sulfosuccinimidyl-2-[6-(biotinamido)-2-(p-azidobenzamido) hyxanoamido]ethyl-1,3′-ithiopropionate) (Sulfo-SBED, A39260, Thermo Fisher Scientific) according to manufacturer's instructions. In brief, 50 μg of rhFABP4 (#4504, BioVision) was incubated with 1 mg of dissolved Sulfo-SBED at room temperature for 30 minutes. The reaction mixture was desalted using Amicon® Ultra-0.5 centrifugal filter device with a 3,000 Molecular Weight Cut Off (Millipore, Germany). The desalted biotinylated rhFABP4 was incubated in PBS with adherent Huh7 cells at room temperature for 10 minutes. The cell surface proteins interacting with biotinylated rhFAPB4 was captured by the photoreactive aryl azide moiety using long wave-UV at 360 nm. The labelled proteins were isolated by NeutrAvidin Agarose slurry and reduced using Pierce™ Cell Surface Protein Biotinylation and Isolation Kit (#A44390, Thermo Fisher Scientific). The interacting rhFABP4-surface protein complex was isolated, and the disulfide bond reduced, resulting in the biotin label being transferred to the interacting proteins. […]

[4] = system: hepatocellular carcinoma cells; test: Flow cytometric analysis of liver CSC markers; type: cell-based, human; conditions: rhFABP4 20 ng/ml and 100 ng/ml (FIG. 2F)
Protocol: Flow cytometric analysis—Cells were stained by Phycoerythrin (PE)-conjugated CD47 and CD90 antibodies (#536046 & #555596, BD Biosciences) in PBS with 2% FBS at 4° C. for 30 to 60 minutes. Isotype-matched mouse immunoglobulins served as controls. Samples were analysed using BD Accuri C6 flow cytometer and FACSDiva software (BD Biosciences).

Huh7 cells = test: In vivo tumorigenicity assay (limiting dilution), subcutaneous engraftment of pretreated Huh7 cells; parameters: species or system mouse xenograft; conditions: Huh7 pretreated with rhFABP4 at 100 ng/ml, NOD/SCID mice
Protocol: (§1) In vivo tumorigenicity assay—In vivo evaluation of tumorigenicity was performed with either male non-obese diabetic/severe combined immunodeficient (NOD/SCID) or NOD/SCID gamma mice, 4 to 6 weeks of age, by induction of tumour xenografts. Cells were suspended in 1:1 culture medium and BD Matrigel Matrix (BD Biosciences) and subcutaneously injected into the flanks of the mice, which were kept under observation. Briefly, each mouse received two injections of cells in both flanks. The cells were pretreated with either rhFABP4 (100 ng/ml) or ADCM for 24 hours, and, with their control group, were injected into NOD/SCID and NOD/SCID gamma mice, respectively. Tumours were harvested at the end of the experiment for documentation. Tumour-initiating cell frequency was calculated using Extreme Limiting Dilution Analysis (ELDA) software. No specific randomization method was used. Sample size of animals was chosen based on p-values. […] Mice were sacrificed if the percentage of body weight loss is greater than 20% including the tumour mass.

[5] = system: hepatocellular carcinoma cells; test: Migration and invasion transwell assays; type: cell-based, human; conditions: rhFABP4 (FIG. 2G)
Protocol: Migration and invasion assays—Migration assays were performed using polycarbonate membrane transwell inserts with pore size of 8 μm (Millipore). Invasion assays were performed using self-coated Matrigel (BD Biosciences) transwell inserts. Hepatocellular carcinoma cell lines (PLC/PRF/5 and Huh7) or patient-derived organoids (HK-HCC P1 and HCC #23) in serum-free medium were seeded in upper chamber, while the lower chamber was supplemented with either ADCM or 100 ng/mL rhFABP4 in serum-free medium as a chemoattractant. Serum-free DMEM was used as a negative control. Cells were incubated in humidified incubation at 37° C. for 48 hours. The transwell membranes were fixed with methanol and stained with 1% crystal violet. The membranes were cleaned and air-dried. Photographs of five randomly selected fields of the fixed cells were captured and the cells were counted using ImageJ.

[6] = system: hepatocellular carcinoma cells; test: Annexin-V apoptosis assay (drug resistance to doxorubicin or sorafenib); type: cell-based, human; conditions: rhFABP4 pretreatment (FIG. 2H)
Protocol: Annexin-V apoptosis assay—Cells were stained by FITC-conjugated Annexin-V (BioVision) and propidium iodide (PI) (Invitrogen) in Annexin-V binding buffer (BD Biosciences) at room temperature for 30 minutes. Apoptosis percentage was determined using BD Accuri C6 flow cytometer and FACSDiva software (BD Biosciences).

[7] = system: hepatocellular carcinoma patient-derived organoids (HK-HCC P1 and HCC #23); test: Hepatocellular carcinoma patient-derived organoid assays; type: cell-based, human
From the text: Hepatocellular carcinoma patient-derived organoids and culture conditions—Hepatocellular carcinoma tissue was obtained from patients undergoing hepatectomy at Queen Mary Hospital, Hong Kong. Samples were collected from patients who had not received any previous local or systemic treatment prior to operation. For organoid cultures, cells were isolated and cultured according to protocol. Hepatocellular carcinoma patient-derived organoids labelled HCC #23 was gift from Dr. Meritxell Huch of The Gudon Institute at the University of Cambridge.
Cell viability assay—Cell viability of organoid cultures treated with specified concentrations of rhFABP4 for 6 days was evaluated using CellTiter-Glo® Luminescent Cell Viability Assay (Promega) according to manufacturer's protocol.
Sphere formation assay—Three to five hundred cells of PLC/PRF/5, Huh7 and hepatocellular carcinoma organoids (HK-HCC P1 and HCC #23) were seeded to 24-well plates coated with poly (2-hydroxyethyl methacrylate) (polyHEMA, Sigma Aldrich). […] The number of tumourspheres (diameter larger than 100 μm) was counted under microscope after 8 to 12 days.
Migration and invasion assays—Migration assays were performed using polycarbonate membrane transwell inserts with pore size of 8 μm (Millipore). […] Photographs of five randomly selected fields of the fixed cells were captured and the cells were counted using ImageJ.

PLC/PRF/5 cells = test: In vivo tumorigenicity assay (limiting dilution), subcutaneous engraftment of pretreated PLC/PRF/5 cells; parameters: species or system mouse (mouse (mouse (human cell xenograft) cell xenograft) cell xenograft); conditions: PLC/PRF/5 pretreated with rhFABP4 at 100 ng/ml, NOD/SCID mice
Protocol: as §1

[8] = system: PI3K/AKT/β-catenin signalling; test: Western blot of AKT/GSK3β/β-catenin signalling in hepatocellular carcinoma cells; type: cell-based, human; conditions: ADCM or rhFABP4 treatment (FIG. 5D)
From the text: Western blot analysis—Whole cell lysates were extracted using either NETN buffer supplemented with protease inhibitor cocktail or direct lysis. Protein lysate was separated by SDS-polyacrylamide gel electrophoresis (SDS-PAGE) and transferred to polyvinylidene difluoride membrane (Millipore) for western blot analyses. Primary antibodies FABP4[EPR3579](1:1000, ab92501, Abcam), pAKT(Ser473) (D9E), pGSK3β(Ser9) (D3A4), AKT and β-catenin (D10A8) (1:1000, #4060S, #9322S, #9272S & #8480S, Cell Signaling Technology), GSK3β(clone 7) (1:1000, #610202, clone 7, BD Transduction Laboratories), DDK (OTI4C5) (1:1000,TA50011-100, Origene), ITGB1 (1:1000, 12594-1-AP, Proteintech) and β-ACTIN (AC-74) (1:5000, #A5316, Sigma Aldrich) were incubated at 4° C. overnight. After washing, the membrane was incubated with horseradish peroxidase-conjugated anti-mouse or rabbit antibody (GE HealthCare). The signals were visualized using the enhanced chemiluminescence method. Blot images were quantified by densitometry using ImageJ software. The protein expression was normalized to β-actin and expressed as fold change relative to respective controls.

Q: With `CCc1c(-c2ccccc2)c(-c2ccccc2)nn1-c1ccccc1-c1cccc(OCC(=O)O)c1` [BMS-309403] as the molecule, how does the Side effects [1] read?
A: acute cardiac depressant effect

Q: What about the “Enhancing self-renewal ability of ADCM (tumoursphere formation)” value ([2]; PLC/PRF/5, ADCM, inhibitor at 1 μM) of the same molecule?
A: suppressed

Q: What about the “Effects of ADCM on liver cancer stem cell properties” value [3] of the same molecule?
A: attenuation

B1: rhFABP4: recombinant human FABP4 protein (Biovision) (protein, UniProt P15090 2-132, looked up)
Fatty acid-binding protein, …: CDAFVGTWKLVSSENFDDYMKEVGVGFATRKVAGMAKPNMIISVNGDVITIKSESTFKNTEISFILGQEFDEVTADDRKVKSTITLDGGVLVHVQKWDGKSTTIKRKREDDKLVVECVMKGVTSTRVYERA
Q: With B1 as the molecule, how does the “Transactivation of β-catenin (TOP/FOP reporter)” value (β-catenin) read?
A: enhanced

Q: What about the “Self-renewal (sphere formation)” value ([2]; rhFABP4 20 ng/ml and 100 ng/ml (FIG. 2D)) of the same molecule?
A: promote

Q: And the “Interaction with membrane receptor ITGB1” value (ITGB1)?
A: directly interacts

Q: And the “Expression of liver CSC markers” value [4]?
A: promote

Q: What about the “Estimated CSC frequency” value (Huh7 cells; extreme limiting dilution) of the same molecule?
A: 1/3404

Q: And the “Tumor incidence rate, 1 × 10^3 cells” value (Huh7 cells; subcutaneous, 1 × 10^3 cells)?
A: 3/5

Q: What about the “Tumor incidence rate, 1 × 10^4 cells” value (Huh7 cells; subcutaneous, 1 × 10^4 cells) of the same molecule?
A: 4/5

Q: And the “Tumor incidence rate, 5 × 10^3 cells” value (Huh7 cells; subcutaneous, 5 × 10^3 cells)?
A: 4/5

Q: What about the “Cell migration and invasion” value [5] of the same molecule?
A: promote

Q: And the “Resistance to doxorubicin and sorafenib treatment” value [6]?
A: promote

Q: What about the “Self-renewal of patient-derived organoids” value ([7]; rhFABP4 (FIG. 4B)) of the same molecule?
A: confer self-renewal

Q: What about the “Size of organoids and their proliferative rate” value ([7]; rhFABP4, 6 days, CellTiter-Glo (FIG. 4C)) of the same molecule?
A: increase

Q: What about the “Estimated CSC frequency” value (PLC/PRF/5 cells; extreme limiting dilution) of the same molecule?
A: 1/2108

Q: And the “Tumor incidence rate, 1 × 10^3 cells” value (PLC/PRF/5 cells; subcutaneous, 1 × 10^3 cells)?
A: 3/5

Q: And the “Tumor incidence rate, 5 × 10^3 cells” value (PLC/PRF/5 cells; subcutaneous, 5 × 10^3 cells)?
A: 4/5

Q: And the “AKT phosphorylation at Ser473” value [8]?
A: activated

Q: What about the “GSK3β phosphorylation at Ser9” value [8] of the same molecule?
A: inactivation

Q: And the “Total β-catenin” value [8]?
A: accumulation
